Measurements as given in the supplement of paper PMC10724198.
± gives the standard deviation of the averaged measurements.

Test system: Saccharomyces cerevisiae
Experiment: protein stability index of tFT-peptide fusion (C-terminal peptide) (PSI (0-1 scale)); higher = more stable (slower turnover)
Settings: temperature: 30 C
Experimental: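 MPS profiling in S. cerevisiae of the yeast C-terminome library: the last 12 aa of each annotated ORF are fused to the C-terminus of a sfGFP-mCherry timer, after a GGGS linker. Cells are FACS-sorted into 8 mCherry/sfGFP bins and deep-sequenced. PSI runs from 0 (unstable) to 1 (stable); wild type and das1Δ backgrounds, two technical replicates each.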

[1] = genetic background: das1 deletion

YANAPIEEKPLI [PUN1 C-terminal 12 aa]
protein stability index [1]: 0.702 ± 0.018 | protein stability index (genetic background: wild type): 0.683 ± 0.017

TLGLLCLIFGLP [YOR277C C-terminal 12 aa]
protein stability index [1]: 0.482 ± 0.0081 | protein stability index (genetic background: wild type): 0.499 ± 0.018

TMSLLKRNPRNH [TRM44 C-terminal 12 aa]
protein stability index [1]: 0.704 ± 0.02 | protein stability index (genetic background: wild type): 0.683 ± 0.032

ILAENEIEVSRG [FET5 C-terminal 12 aa]
protein stability index [1]: 0.7042 ± 0.00013 | protein stability index (genetic background: wild type): 0.705 ± 0.0081

LSTLGVGAAIIS [AVT1 C-terminal 12 aa]
protein stability index [1]: 0.695 ± 0.024 | protein stability index (genetic background: wild type): 0.675 ± 0.035

PVRMYALKPMPN [TAE1 C-terminal 12 aa]
protein stability index [1]: 0.6931 ± 0.0035 | protein stability index (genetic background: wild type): 0.665 ± 0.04

QVGKSQAQAVTL [ANY1 C-terminal 12 aa]
protein stability index [1]: 0.674 ± 0.0092 | protein stability index (genetic background: wild type): 0.7167 ± 0.0057

PIVHYISDRRTV [ARC15 C-terminal 12 aa]
protein stability index [1]: 0.682 ± 0.013 | protein stability index (genetic background: wild type): 0.688 ± 0.0093

KTGKSSVIDLQR [GCN2 C-terminal 12 aa]
protein stability index [1]: 0.712 ± 0.031 | protein stability index (genetic background: wild type): 0.726 ± 0.11

IADASSLSWNMK [LEM3 C-terminal 12 aa]
protein stability index [1]: 0.697 ± 0.038 | protein stability index (genetic background: wild type): 0.719 ± 0.011

TNMSSVSAFISR [PTK2 C-terminal 12 aa]
protein stability index [1]: 0.718 ± 0.0017 | protein stability index (genetic background: wild type): 0.713 ± 0.013

EELPSDIATLLN [YKR059W; YJL138C C-terminal 12 aa]
protein stability index [1]: 0.7021 ± 0.00081 | protein stability index (genetic background: wild type): 0.716 ± 0.031

HQNENMFLTELY [YDL247W-A C-terminal 12 aa]
protein stability index [1]: 0.7214 ± 0.0031 | protein stability index (genetic background: wild type): 0.707 ± 0.067

GTKVDDDKKNKS [SPP2 C-terminal 12 aa]
protein stability index [1]: 0.7041 ± 0.0011 | protein stability index (genetic background: wild type): 0.663 ± 0.03

SPELHTYETIYD [ROY1 C-terminal 12 aa]
protein stability index [1]: 0.752 ± 0.0093 | protein stability index (genetic background: wild type): 0.7694 ± 0.0053

AIWKHGIVEEKI [TMA19 C-terminal 12 aa]
protein stability index [1]: 0.695 ± 0.014 | protein stability index (genetic background: wild type): 0.694 ± 0.026

EEVLEETKEKVE [PRT1 C-terminal 12 aa]
protein stability index [1]: 0.689 ± 0.034 | protein stability index (genetic background: wild type): 0.685 ± 0.013

KGGLEGWVKSQL [LYS4 C-terminal 12 aa]
protein stability index [1]: 0.808 ± 0.018 | protein stability index (genetic background: wild type): 0.811 ± 0.074

FFFATQRDLKRT [YDR431W C-terminal 12 aa]
protein stability index [1]: 0.715 ± 0.05 | protein stability index (genetic background: wild type): 0.733 ± 0.019

HNLHSYEKRLYN [IMD4 C-terminal 12 aa]
protein stability index [1]: 0.702 ± 0.025 | protein stability index (genetic background: wild type): 0.672 ± 0.013

LEKVLNQIGLKN [YNL011C C-terminal 12 aa]
protein stability index [1]: 0.6874 ± 0.0064 | protein stability index (genetic background: wild type): 0.6425 ± 0.0062

RAHITKQKKKGY [SDA1 C-terminal 12 aa]
protein stability index [1]: 0.7317 ± 0.0043 | protein stability index (genetic background: wild type): 0.6636 ± 0.0011

ITNFFRVLVRLV [YER067C-A C-terminal 12 aa]
protein stability index [1]: 0.526 ± 0.024 | protein stability index (genetic background: wild type): 0.155 ± 0.0039

FRSTRSNTPNYT [HDA2 C-terminal 12 aa]
protein stability index [1]: 0.728 ± 0.018 | protein stability index (genetic background: wild type): 0.737 ± 0.046

DIEVDHTKSTDP [DPB3 C-terminal 12 aa]
protein stability index [1]: 0.6917 ± 0.0038 | protein stability index (genetic background: wild type): 0.676 ± 0.018

EIGHMYQKIKKS [MNN11 C-terminal 12 aa]
protein stability index [1]: 0.721 ± 0.0077 | protein stability index (genetic background: wild type): 0.317 ± 0.014

PFPLLRLSAPFK [OST3 C-terminal 12 aa]
protein stability index [1]: 0.72 ± 0.0091 | protein stability index (genetic background: wild type): 0.749 ± 0.061

IIQKETQSAGDK [PZF1 C-terminal 12 aa]
protein stability index [1]: 0.661 ± 0.013 | protein stability index (genetic background: wild type): 0.678 ± 0.024

SRGQNTHPSVDK [ESC1 C-terminal 12 aa]
protein stability index [1]: 0.699 ± 0.012 | protein stability index (genetic background: wild type): 0.692 ± 0.029

ASGEYESDGSDD [RRN3 C-terminal 12 aa]
protein stability index [1]: 0.677 ± 0.026 | protein stability index (genetic background: wild type): 0.709 ± 0.063

GLQFHFKAEHKD [PHO86 C-terminal 12 aa]
protein stability index [1]: 0.701 ± 0.014 | protein stability index (genetic background: wild type): 0.686 ± 0.058

YEEGESIFGSLF [REV7 C-terminal 12 aa]
protein stability index [1]: 0.71 ± 0.029 | protein stability index (genetic background: wild type): 0.7145 ± 0.0024

TSLGLTRTTIIP [CDC4 C-terminal 12 aa]
protein stability index [1]: 0.685 ± 0.021 | protein stability index (genetic background: wild type): 0.6778 ± 0.0043

SSLARPSLFSSE [YBL077W C-terminal 12 aa]
protein stability index [1]: 0.735 ± 0.026 | protein stability index (genetic background: wild type): 0.714 ± 0.056
